These are literature values, as cited in article PMC3772054.

For series [1], the target named is IL-2Rα (Homo sapiens) (UniProt P01589).
The target in series [2] is IL-15Rα (Homo sapiens) (UniProt Q13261).
Sequence of UniProt Q13261 (Q13261 31-205): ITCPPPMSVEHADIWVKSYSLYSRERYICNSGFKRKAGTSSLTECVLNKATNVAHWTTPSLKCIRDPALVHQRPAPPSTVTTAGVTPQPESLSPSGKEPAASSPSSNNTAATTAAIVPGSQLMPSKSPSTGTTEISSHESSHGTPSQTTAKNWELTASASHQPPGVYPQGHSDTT

Sequence of UniProt P01589 (P01589 22-240): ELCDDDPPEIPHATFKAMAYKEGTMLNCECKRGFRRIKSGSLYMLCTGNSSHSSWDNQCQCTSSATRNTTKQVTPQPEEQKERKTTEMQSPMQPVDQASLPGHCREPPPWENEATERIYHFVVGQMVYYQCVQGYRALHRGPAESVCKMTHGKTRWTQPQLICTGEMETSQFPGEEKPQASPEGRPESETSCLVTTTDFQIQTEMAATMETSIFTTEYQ

As for IL-2 (from UniProt P60568), the equilibrium dissociation constant (Kd) (in general, the concentration at which binding is half-saturated) in series [1] was 4.8 nM.
Take IL-15 (from UniProt P40933): the Kd in series [2] was 0.038 nM.
